From patent publication US20240141039A1 (AGENUS, published 2024)

Target: T1, wild type full-length human TIGIT expressed on cells (human, UniProt Q495A1 22-244)
T1 construct: whole, on cells; also called human TIGIT-CHO; human TIGIT CHO cells
T1 sequence (looked up): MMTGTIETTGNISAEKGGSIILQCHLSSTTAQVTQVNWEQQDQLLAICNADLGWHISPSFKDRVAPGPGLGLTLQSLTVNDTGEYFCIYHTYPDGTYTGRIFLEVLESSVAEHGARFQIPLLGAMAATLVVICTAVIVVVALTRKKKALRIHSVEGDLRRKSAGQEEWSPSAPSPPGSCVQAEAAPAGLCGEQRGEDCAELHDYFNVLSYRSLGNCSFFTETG
Assay: flow cytometry on CHO cells expressing human TIGIT, PE anti-human IgG Fc detection
Protocol: The ability of anti-TIGIT antibodies to bind to wild type human TIGIT expressed on the surface of CHO cells was assessed. Briefly, CHO cells were transfected with a vector encoding wild type human TIGIT (human TIGIT-CHO), and clones stably expressing TIGIT were selected.
For the antibody binding assay, a frozen aliquot of human TIGIT-CHO cells was thawed at 37° C. and then transferred to a tube containing DPBS supplemented with 0.5% Bovine Serum Albumin and 0.05% Sodium Azide (FACS Buffer). Cells were centrifuged at 300 g for five minutes. The supernatant was discarded, and cells resuspended in FACS buffer were seeded in a 96-well U-bottom tissue culture plate at a density of […] cells per well in 50 μL. In a separate microplate, a 2× concentrated intermediate stock of each antibody was prepared. Antibodies were serially diluted 1-to-4 in FACS buffer. A total of 11 working dilutions ranging from 60 μg/mL to 0.000057 μg/mL were prepared. […] After a 30-minute incubation on ice, the cells were washed twice with cold FACS Buffer, and the cells were analyzed by flow cytometry (BD LSR Fortessa Flow Cytometer). The data were analyzed using the FlowJo software by sequentially gating the FSC-A vs. SSC-A, and SSC-H vs. SSC-A. Mean fluorescence intensity (MFI) values for PE were calculated, and the data were plotted by GraphPad Prism software.

B1: anti-TIGIT monospecific antibody BA148 (antibody, human IgG1, lambda)
heavy: EVQLVQSGAEVKKPGSSVKVSCKASGYTFASYGISWVRQAPGQGLEWMGGITPFFNRVDVAEKFQGRVTITADKSTSTAYIELSSLRSEDTAVYYCARDLRRGGVGDAFDIWGRGTLVTVSSASTKGPSVFPLAPSSKSTSGGTAALGCLVKDYFPEPVTVSWNSGALTSGVHTFPAVLQSSGLYSLSSVVTVPSSSLGTQTYICNVNHKPSNTKVDKRVEPKSCDKTHTCPPCPAPELLGGPDVFLFPPKPKDTLMISRTPEVTCVVVDVSHEDPEVKFNWYVDGVEVHNAKTKPREEQYNSTYRVVSVLTVLHQDWLNGKEYKCKVSNKALPLPEEKTISKAKGQPREPQVYTLPPSREEMTKNQVSLTCLVKGFYPSDIAVEWESNGQPENNYKTTPPVLDSDGSFFLYSKLTVDKSRWQQGNVFSCSVMHEALHNHYTQKSLSLSPGK
light: QSALTQPRSVSGSPGQSVTISCTGTSPDVGSHAYRSWYQQHPGKAPKLMIYEVSYRPSGVSNRFSGSKSGNTASLTISGLQAEDEADYYCSSYPPSSATVFGAGTKLTVLGQPKAAPSVTLFPPSSEELQANKATLVCLISDFYPGAVTVAWKADSSPVKAGVETTTPSKQSNNKYAASSYLSLTPEQWKSHRSYSCQVTHEGSTVEKTVAPTEC
notes: IgG1; also called anti-TIGIT IgG1 antibody BA148
EC50 (read off the curve): ~8 ng/mL
